# Reference: patent US6515110
# Key:
# [1] = molecular target: TAG-72 antigen on a human breast carcinoma extract (human); assay: competition ELISA, competitor biotin-CC49 IgG, human breast carcinoma extract
# [2] = molecular target: TAG-72 antigen on a human breast carcinoma extract (human); assay: competition RIA, competitor 125I-CC49 IgG, human breast carcinoma extract
Substance,fold higher protein concentration needed to displace the IgG (against CC49/212 single-chain Fv) [1] [fold],fold higher protein concentration needed to displace the IgG (against CC49 IgG and bivalent CC49/212) [2] [fold]
CC49/4-4-20 heterodimer Fv (fraction 5) (bispecific antibody),200,–
CC49/212 single-chain antigen-binding protein (monomer) (scFv),–,10
